Measurements: US20250361297A1 (ADAPTAM THERAPEUTICS S L, published 2025)

Legend:
[1] = biological target: T1, mouse Siglec-15, full length, expressed on HEK293T cells (mouse); assay: IgG1 titration, flow cytometry on HEK293T cells expressing mouse Siglec-15
T1 construct: also called mS15; HEK293T cells expressing mouse Siglec-15
T1 chain: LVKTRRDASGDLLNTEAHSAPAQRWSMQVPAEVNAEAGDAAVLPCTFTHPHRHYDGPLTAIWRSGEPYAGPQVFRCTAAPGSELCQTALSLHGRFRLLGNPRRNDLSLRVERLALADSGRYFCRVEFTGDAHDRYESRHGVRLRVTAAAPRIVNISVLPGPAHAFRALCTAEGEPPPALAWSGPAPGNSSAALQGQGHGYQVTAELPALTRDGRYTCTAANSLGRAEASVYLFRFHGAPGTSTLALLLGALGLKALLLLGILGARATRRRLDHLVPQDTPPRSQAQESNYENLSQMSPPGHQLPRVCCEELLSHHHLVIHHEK

[2] = biological target: T2, human Siglec-15, full length, expressed on cells (human, UniProt Q6ZMC9 20-328); assay: IgG1 titration, flow cytometry on MOLM-13 human Siglec-15 cells
T2 construct: also called hS15; MOLM-13 Siglec-15 expressing cells
T2 sequence: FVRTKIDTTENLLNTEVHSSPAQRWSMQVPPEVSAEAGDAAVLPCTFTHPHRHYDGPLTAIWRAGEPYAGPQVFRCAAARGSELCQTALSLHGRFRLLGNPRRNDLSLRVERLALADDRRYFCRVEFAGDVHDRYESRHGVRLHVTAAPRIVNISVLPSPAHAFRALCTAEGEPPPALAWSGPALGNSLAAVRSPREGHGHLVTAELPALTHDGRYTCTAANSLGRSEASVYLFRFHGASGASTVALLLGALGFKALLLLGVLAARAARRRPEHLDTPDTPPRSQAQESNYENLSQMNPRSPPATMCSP

[3] = biological target: T3, truncated human Siglec-15 comprising only domain 2 (D2), expressed on HEK293T cells (human, UniProt Q6ZMC9 168-251, limits assumed); assay: flow cytometry, HEK293T cells expressing only domain 2 of human Siglec-15, fold change of Siglec15 gMFI relative to 2ry control
T3 construct: also called domain 2-only human Siglec-15; Siglec-15 Domain 2 (D2) HEK293T cells
T3 sequence: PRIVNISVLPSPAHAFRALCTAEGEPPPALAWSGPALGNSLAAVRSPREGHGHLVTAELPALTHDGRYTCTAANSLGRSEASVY

[4] = biological target: T4, recombinant Siglec-15 (bispecific antibody affinity assay) (Homo sapiens (Human), UniProt Q6ZMC9 20-263, limits assumed); assay: antibody as ligand, human Siglec15 as analyte; legend paragraph 114 says BLI, methods paragraph 422 say Biacore SPR, table in RU
T4 sequence: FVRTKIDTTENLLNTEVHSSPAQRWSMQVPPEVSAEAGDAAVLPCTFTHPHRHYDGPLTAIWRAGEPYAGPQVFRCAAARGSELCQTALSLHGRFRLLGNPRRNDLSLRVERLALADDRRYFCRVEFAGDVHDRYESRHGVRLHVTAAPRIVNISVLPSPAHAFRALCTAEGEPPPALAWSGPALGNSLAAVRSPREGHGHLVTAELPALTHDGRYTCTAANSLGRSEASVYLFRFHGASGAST

recombinant CD3 = recombinant CD3 (UniProt P07766 23-126; P09693 23-116); assay: antibody as ligand, 'Human CD3 epsilon&CD3 gamma' as analyte; legend paragraph 116 says BLI, methods paragraph 422 say Biacore SPR, table in RU
recombinant CD3, sequence (P07766 23-126, form in doubt, chain 1 of 2): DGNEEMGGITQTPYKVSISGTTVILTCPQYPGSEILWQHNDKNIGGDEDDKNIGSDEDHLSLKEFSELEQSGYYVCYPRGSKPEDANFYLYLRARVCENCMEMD
recombinant CD3, sequence (P09693 23-116, form in doubt, chain 2 of 2): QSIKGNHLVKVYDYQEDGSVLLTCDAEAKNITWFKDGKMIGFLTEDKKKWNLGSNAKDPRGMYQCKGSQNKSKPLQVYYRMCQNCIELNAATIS

[5] = biological target: T5, recombinant human Siglec-15-his protein (Bonopusbio) (human, UniProt Q6ZMC9 20-263); assay: SPR (Biacore T200), antibody on CM5 chip, Siglec-15-his as analyte
T5 construct: Bought (CW37-50 ug in the ELISA; the SPR paragraph prints CW70-50 ug); whole entry named; also called recombinant human Siglec-15 protein
T5 sequence: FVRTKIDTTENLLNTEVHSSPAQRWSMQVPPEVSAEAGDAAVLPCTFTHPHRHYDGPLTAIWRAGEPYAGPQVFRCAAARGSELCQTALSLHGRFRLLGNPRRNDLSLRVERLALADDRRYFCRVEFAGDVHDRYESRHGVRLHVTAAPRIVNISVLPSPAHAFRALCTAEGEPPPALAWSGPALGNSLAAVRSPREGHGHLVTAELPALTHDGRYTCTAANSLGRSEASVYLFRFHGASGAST

[6] = biological target: T2, human Siglec-15, full length, expressed …; assay: flow cytometry, HEK293T cells expressing human Siglec-15, anti-human IgG-PE, MFI

B1: ZLA-1212-B05 (antibody, V domains shown)
VH: QVQLVQSGGGVVQPGRSLRLSCAASGFTFSSYAMHWVRQAPGKGLEWVAVISYDGSNKYYADSVKGRFTISRDNSKNTLYLQMNSLRAEDTAVYYCAREGGSYYGYFDYWGQGTLVTVSS
VL: QSVLTQPPSVSVAPGKTARITCGGNNIGSKSVHWYQQKPGQAPVLVIYDDSDRPSGIPERFSGSNSGNTATLTISRVEAGDEADYYCQVWDSSSDHRVFGGGTKLTVL
notes: Fully human, from phage display; also called clone ZLA-1212-B05
[1]
  EC50: 0.168 µg/mL
[2]
  EC50: 0.215 µg/mL
[3]
  binding result: no binding

B2: BsAb-2 (bispecific antibody, human IgG1, kappa, L234A L235A)
light 1: not shown
heavy 1: QVQLQQSGPELVKPGASVKISCKASGYAFSSSWMNWVKQRPGKGLEWIGRIYPGHGETNYNGKFKDKATVTADKSSSTTYMQLSSLTSEDSAVYFCARVDNSDPYYFDYWGQGTTLTVSSASTKGPSVFPLAPSSKSTSGGTAALGCLVKDYFPEPVTVSWNSGALTSGVHTFPAVLQSSGLYSLSSVVTVPSSSLGTQTYICNVNHKPSNTKVDKKVEPKSCDKTHTCPPCPAPEAAGGPSVFLFPPKPKDTLMISRTPEVTCVVVDVSHEDPEVKFNWYVDGVEVHNAKTKPREEQYNSTYRVVSVLTVLHQDWLNGKEYKCKVSNKALPAPIEKTISKAKGQPREPQVCTLPPSRDELTKNQVSLSCAVKGFYPSDIAVEWESNGQPENNYKTTPPVLDSDGSFFLVSKLTVDKSRWQQGNVFSCSVMHEALHNHYTQKSLSLSPGK
heavy 2: not shown
light 2: not shown
notes: 2 + 1 format; also called anti-Siglec-15/CD3 bispecific antibody, Format-2: KIH & scFv (2 + 1)
[4]
  Kd: 170 pM
  koff: 0.000133 s⁻¹
  kon: 786000 M⁻¹ s⁻¹
Recombinant CD3
  Kd: 137000 pM
  koff: 0.00739 s⁻¹
  kon: 53800 M⁻¹ s⁻¹

B3: ZLA-1214-B07 (antibody, V domains shown)
VH: QVQLVQSGAEVKKPGSSVKVSCKASGGTFSSYAISWVRQAPGQGLEWMGGIIPIFGTANYAQKFQGRVTITADESTSTAYMELSSLRSEDTAVYYCARDGGRDGYNPKKILEFDYWGQGTLVTVSS
VL: not shown
notes: Fully human, from phage display
[1]
  EC50: 0.102 µg/mL
[2]
  EC50: 0.133 µg/mL
[3]
  binding result: no binding

B4: S15B1-VH3 + VL2 (antibody, V domains shown)
VH: QVQLVQSGAEVKKPGASVKVSCKASGYAFSSSWMNWVKQAPGQGLEWIGRIYPGHGETNYNGKFKDRATMTADTSTSTVYMELSSLRSEDTAVYFCARVDNSDPYYFDYWGQGTTVTVSS
VL: DIVLTQSPASLAVSPGQRATITCRASKSVSTSGYSYMHWYQQKPGQPPKLLIYLASNLESGVPARFSGSGSGTDFTLTINPVEAEDTATYYCQHGRELPFTFGGGTKLEIK
notes: Humanized S15B1; also called humanized S15B1 VH3+VL2; huS15B1
[5]
  Kd: 65.3 pM
  koff: 0.000293 s⁻¹
  kon: 4.49e+06 M⁻¹ s⁻¹
[6]
  EC50 (read off the curve): ~1000 pM

B5: S15B1-VH2 + VL1 (antibody, V domains shown)
VH: QVQLVQSGAEVKKPGASVKVSCKASGYAFSSSWMNWVRQAPGQGLEWIGRIYPGHGETNYNGKFKDRVTMTADTSTSTVYMELSSLRSEDTAVYFCARVDNSDPYYFDYWGQGTTVTVSS
VL: DIVLTQSPASLAVSPGQRATITCRASKSVSTSGYSYMHWYQQKPGQPPKLLIYLASNLESGVPARFSGSGSGTDFTLTINPVEAEDTANYYCQHGRELPFTFGGGTKLEIK
notes: Humanized S15B1; also called humanized S15B1 VH2+VL1; huS15B1
[5]
  Kd: 125 pM
  koff: 0.000473 s⁻¹
  kon: 3.8e+06 M⁻¹ s⁻¹

B6: S15B1-VH1 + VL1 (antibody, V domains shown)
VH: QVQLVQSGAEVKKPGASVKVSCKASGYAFSSSWMNWVRQAPGQGLEWIGRIYPGHGETNYNGKFKDRVTMTADTSTSTVYMELSSLRSEDTAVYFCARVDNSDPYYFDYWGQGTTVTVSS
VL: DIVLTQSPASLAVSPGQRATITCRASKSVSTSGYSYMHWYQQKPGQPPKLLIYLASNLESGVPARFSGSGSGTDFTLTINPVEAEDTANYYCQHGRELPFTFGGGTKLEIK
notes: Humanized S15B1; also called humanized S15B1 VH1+VL1; huS15B1
[5]
  Kd: 136 pM
  koff: 0.000455 s⁻¹
  kon: 3.35e+06 M⁻¹ s⁻¹

B7: S15B1-VH3 + VL1 (antibody, V domains shown)
VH: QVQLVQSGAEVKKPGASVKVSCKASGYAFSSSWMNWVKQAPGQGLEWIGRIYPGHGETNYNGKFKDRATMTADTSTSTVYMELSSLRSEDTAVYFCARVDNSDPYYFDYWGQGTTVTVSS
VL: DIVLTQSPASLAVSPGQRATITCRASKSVSTSGYSYMHWYQQKPGQPPKLLIYLASNLESGVPARFSGSGSGTDFTLTINPVEAEDTANYYCQHGRELPFTFGGGTKLEIK
notes: Humanized S15B1; also called humanized S15B1 VH3+VL1; huS15B1
[5]
  Kd: 69 pM
  koff: 0.000257 s⁻¹
  kon: 3.73e+06 M⁻¹ s⁻¹
[6]
  EC50 (read off the curve): ~1000 pM
